Results published in the nanobody polyreactivity screen of Harvey et al. (2022).

Assay: yeast display, Sf9 membrane polyspecificity reagent, FACS + sequencing; frameworks hold sequencing errors
Procedure, shortened: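 Galactose induction of a Saccharomyces cerevisiae BJ5465 synthetic nanobody display library ran 36–48 hours. The cells were then stained for 1 hour at 4 °C with 10% biotinylated, detergent-solubilized Sf9 membrane reagent, pulled down on streptavidin microbeads and FACS-sorted into low and high (top ~1%) gates on expression and reagent-binding fluorescence. Labels for polyreactivity follow the gate of origin.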

Row | Sequence | polyreactivity (PSR sort gate)
1 | QVQLVESGGGLVQAGGSLRLSCAASGITFYEYAMGWYRQAPGKEREFVAAIDDGDSSTYYADSVKGRFTISRDNAKNTVYLQMHSLKPEDTAVYYCNADPYYVYSLNWGDFWGQGTQVTVSS | low polyreactivity
2 | QVQLVESGGGLVQAGGSLRLSCAAYGRIFSSYAMGWYRQAPGKERELVAAISSSGGRTYYADSVKGRFTISRDNAKNTVYLQMNRLKPEDTAVYYFARVTTGGYEYWGQGSQVTVSS | high polyreactivity
3 | QVQLVESGGGLVQAGGSLRLSCAASGSIFHLYLGWYRQAPRKERELVAVIKSSGDSTYYADSVKGRFTISRDNAKNTVYLQMNSMKPEDTAVYYCNARRRGPRYRYCYWGQGTQVTVSS | high polyreactivity
4 | QVQLVESGGGLVQAGGSLRLSCAGSGSTFKYYAMGWYRQAPGKARELVAAIRTSGGRTYYADSVKGRFTISRDNAKNTVYLPMNSLKPEDTAVYYCNASSTQFGQRYEYWGQGTQVTVSS | high polyreactivity
5 | QVQLVESGGGLVQAGGSLRLSCAASGFTLQSNAMGWYRQAPGKERELVAAISFRGGSTYYADSVKGRFTISRDNAKNTVYLQMNSLKPEDTAVYYCAAVQVHLREYDYWGQGSQVTVSS | low polyreactivity
6 | QVQLVESGGGLVQAGGSLRLSCAASGSTFGWYTMGWYRQAPGKERELVAAINYSGGSTYYADSVKGRFTISRDNAKNTVYLQMISLKPEDTAVYYCAADGTWSIYGGLYYWGQGTQVTVSS | low polyreactivity
7 | QVQLVESGGGLVQAGGSLRLSCAASGRTFYSNAMGWYRQAPGKERELVAAIRQSGGSTYYADSVKGRFTISRDNEKNSVYLQMNSLTPEDTAVYYCATGRHDSYKGSLYYYWGQGTQVTVSS | high polyreactivity
8 | QVQLVESGGGLVQAGGSLRLSCAASGRIFDRNTMGWYRQAPGKEREFVAAISGSGGRTYYADSVKGRFTISRDNAKNTVYLQMNSLKPEDTAVYYCAAYYSRQYVGYGYWGQGTQVTVSS | high polyreactivity
9 | QVQLVESGGGLVQAGGSLRLSCAASGFIFLAYAMGWYRQAPGKERELVAAISRSGGRTYYADSVKGRFTISRDNAKNTVYLQMNSLKPEDTAVYYCAPLANGTNGFYYWGQGTQVTVSS | high polyreactivity
10 | QVQHVESGGGLVQAGGSLRLSCAASGSIFPVYAMRWYRQAPGKEREFVASIRWRGGSTSYADSVKGRFTISRDNAKNTVYLQMNSLKPEDTAVYYCNAVYYSWAQSARFDYWGQGTQVTVSS | low polyreactivity
11 | QVQLVESGGGLVQAGGSLRLSCAASGRIFRYNTMGWYRQAPGKEREFVAAITQRGVNTYYADSVKGRFTISRDNAKNTVYLQLNSLKPEDTAVYYCNAKRYSYWIYRAYDYWGQGTQVTVSS | low polyreactivity
12 | QVQIVESGGGLVQAGGSLRLSCAASGSTIIRNAMGWSRQAPRKERELVAAISTSGGRTHYADSVKGRFTISRDNAKNTVYLQMNSLKPEDTAVYYCASRGKGHYYYWGQGTQVTVSS | high polyreactivity
13 | QVQLVESGGGLVQAGGSLRLSCAASGSTFSGYAMRWYRQAPGKERELVATITRRGGNTYDADSVKGGFTISRDNAKNTVYLQMNSLKPEDTAVYYCAKEGRVQSPYHYWGQGTQVTVSS | low polyreactivity
14 | QVQLQESGGGLVQAGGSLRLSCAASGTISQEDWKGWYRQAPGKEREFVAAIGLGSNTNYADSLKGRFTISRDNAKNTVYLQMNSLKQEDTAVYYCAVSVWQYSDHVYRGQGTQVTVSS | low polyreactivity
15 | QVQLVESGGGLVQAGGSLRLSCAASGFTFKRYAMGWYRQAPGNERELVAAISYSGGSTYYADSVKWRFTISRDNAKNTVYLQMKSLKPEDTAVYYCAAPRGHGKYYSWGQGTQVTVSS | high polyreactivity
16 | QVQLVESGGGLVQAGGSLRFSCAASGGTFQGNAMGWYRQAPGKEREFVATITRGGGSTYYADSVKGRFTISRDNAKNTVYLQMNSLKPEDTAVYYCNAKPSYYQRYNYWGQGTQVTVSS | high polyreactivity
17 | QVQLVESGGGLVQAGGSLRLSCAASGRTFYRYAMGWYRQAPGKERELVASITRDGRTNYADSVKGRFTISRDNAKNTVYLQMNSLKPEDTAVYYCNAKHKITHSSSDYWGQGTQVTVSS | high polyreactivity
18 | QVQLVESGGGLVQAGGSLRLSCAASGSTFNRYAMGWYRPAPGKEWELVAAISGSNGGTDYADSVKGRFTISRDNAKNTVYLQMNSLKPEDTAVYYCAKVRAYTRLGLTVSMDYWGQGTQVTVSS | high polyreactivity
19 | QVQLVESGGGLVQAGGSLRLSCAASGSTLSYNAMGWYRQAPGKERELVAAISGRGGSTSYADSVKGRFTISRDNAKNTVYLQMNSLKPEDTAVYYCNRYSRSAYEWEYYSWGQGTQVTVSS | high polyreactivity
20 | QVQLVESGGGLVQAGGSLRLSCAASGRIFVRYAMGWSRQAPGKEREMVAAISSSGGRTYYADSVKGRFTISRDNAKNTVYLQMNSLNAEDTAVYYCAARWVQYGVRYDYWGQGTQVTVSS | high polyreactivity
21 | QVQLVESGGGLVQAGGSLRLSCAASGRTFGVYALGWYRQAPRKERELVAGIRWRGGSTYYADSVKGRFTISRDNAKNTVYLQMNSLKPEDTAVYYCAADVYLVKYDYWGQGTQVTVSS | low polyreactivity
22 | QVQLVESGGGLVQAGGSLRLSCAASGFIFRYYAMGWYRQAPGKERELVATISASGGRTYYADSVKGRFTISRDNAKNTVYLQMNSLKPEDTAVYYCAVRPYWLGTYAPVAFDYWGQGTQVTVSS | high polyreactivity

Row | Sequence | polyreactivity (PSR sort gate)
23 | QVQLEESGGGLVQAGGSLRLSCAASGRTFPLYVMGWYRQAPGKEREWVAAISARGGSTYYADSVKGRFTISRDNAKNTVYLQMNSLKPEDTAVYYCATLVTNGRYDSWGQGTQVTVSS | high polyreactivity
24 | QVQLVESGGGLVHAGGSLRLSCAASGSIFFQYGMGWYRHAPGKEREYVAAISVSGGSTYYADSVKGRFTISRDNAKNSVYLQMNSLKPEDTAVYYCAADGSTDYVYSPPIDEYDFWGQGTQVTVSS | low polyreactivity
25 | QVKLVESGGCLVQAGCSLRLSCAASGRTFHGYAMGWYRQAPGTERELVAAITVSGDSTYYADSVKGRFTISRDNAKNTVYLQMNSLKPEDTAVYYCNASFREPSTPVYLVAFDYWGQGTQVTVSS | low polyreactivity
26 | QVHLVESGGGLVQAGGSLRLSCAASGFTLYYYMGWYRQAPGKERELVAGISNSGSTSYADSVKGRFTISRDNAKNTVYLQMNSLKPEDTAVYYCNAYYPAWYLDRYYYWGQGTQVTVSS | high polyreactivity
27 | QVQLVESGGGLVHAGGRLRLSCAAYGITFSSYAMGWYRQAPGKERELVAAITWSGTSTYYADSVKGRFTISRDNAKNTVYLQMNSLKPEYTAVSYCADEAGAPFSISHDYWGQGTQVTVSS | low polyreactivity
28 | QVQLVESGGGLVQAGGSLRLSCAASGSIFPYNVMGWYRQAPGKERELVAAITRRGGSTYYADSVKGRFTISRDNAKNTVYLQMNSLKPEDTAVYYCAAVPYPRGKGYDYWGQGTQVTVSS | high polyreactivity
29 | QVQLVESGGGLVQAGGSLRLSCAASGSIFYRNAMGWYRQAPGKERELVAAITRSDGRTYYADSVKGRFTISRDNAKNTVYLQMNSLKPEDTAVYYCNADHPFPQYEGGSWGQGTQVTVSS | low polyreactivity
30 | QVQLVESGGGLVQAGGSLRLSCAASGSTQNVYAMGWYRQATGKERELVAAIRWSGDTYYADSVKGRFTISRDNAKNTVYLQMNSLKPEDTAVYYCAAVPGTTYWQRFDYWGQGTQVTVSS | low polyreactivity
31 | QVQLVESGGGLVQAGGSLRLSCDASGSIFVLNAMGWYRQAPGKERELVAAISYSGGSTYYADSVKGRFTISRDNAKNTVYLQMNSLKPEDTAVYYCAADLVSYYGYSSEYEYWGQGTQVTVSS | high polyreactivity
32 | QVQLVESGGGLDQAGGSLRLSSAASGFIFDGNAMGWYRQAPGKERELVASITKSSGRTYYADSVKGRFTISRDNAKNTVYLQMNSLKPEDTAVYYCNKARRSVQPYGRQYDYWGQGTQVTVSS | high polyreactivity
33 | QVQLVESGGGLVQAGGSLRLICAASGFIFFINDMGWYRQAPGKERELVAAISWSCGSTYYADSVKGRFTISRDNAKNTVYLQMNSLKPEDTAVYYCNTDVPTAQYDYWGQGTQVTVSS | low polyreactivity
34 | QVQLVESGGGLVQAGGSLRLSCAASGSTFDPNAKGWYRQEPGKERELVAAISKSGGRTYYADSVKGRFTISRDNAKNTVYLQMNSLKPEDTAVYYCNARFGSRYNFFGLRYNYWGLGTQVTVSS | high polyreactivity
35 | QVQLVESGGGLVQAGGSLRLSCAASGRTFLTNPMGWYRQAPGKETELVAVITSSGGTYYADSVKGRFSISRDNAKNTVYLQMNSLKPEYTEVYYCNTRQQFTLTRGVFLHNYWGQGTQVTVSS | high polyreactivity
36 | QVQLVESGGGLVQAGGSLRLSCAASGFIFSLNAMGWYRQAPGKEREFVASITWSGTRTYYADSVKGRFTISRDNAKNTVYLQMNSLKPEDTAVYYCAARTKRSYEYQAFYYWGQGTQVTVSS | high polyreactivity
37 | QVQLVESGGGLVQAGGSLRISCAASGRTFPRYAMGWYRQAPGKERELVAGISWSGGRTYYADSVKGRFTISRDNAKNTVYLQMNSLKPEDTAVYYCAVVSKNLSYRTTFYYWGQGTQVTVSS | high polyreactivity
38 | QLQLVESGGGLVQAGGSLRLRCAASGRTFIRYAMGWYRPAPGKERELVAAISSRGGRTHYADSVKGRFTISRDNAKNTFYFQMNSLKPEDTAVYDCAADLNYGTVPGASYDYWGQGTQVTGSS | low polyreactivity
39 | QVQLVESGGGLVQAGGSLRLSCAASGITFSYNAMGWYRQAPGKEREFVAAISSNSDSTYYADSVKGRFTISRDTAKITVYLQMNSLKPEDTAVYYCAADTPDAPDYSGFYYWGQGTQVTVSS | low polyreactivity
40 | QVQLVESGGGLVQAGGSLRLSCAASGRTFYSYTMGWYRPAPGKERELVAAINRGGSTYYADSVKGRFTISRDNAKNTVYLQMNSLKPEDTAVYYCAVGYAHSSNRRYYYKKTHGYWGQGTQVTVSS | low polyreactivity
41 | QVQLVESGGGLVQAGGSLRLSCAASGFTFPWYAMGWYRQAPGKERELVAALTGSGGSTDYADSVKGRFTISRDNAKNTVYLQMNSLKPEDTAVYYCNAGKTIDYRDGVGYDHWGQGTQVTVSS | low polyreactivity
42 | QVQLVESGGGLVQAGGSLRLSCAASGSTFKAYVMGWYRQAPGKERELVAVISRSGGTTYYADSVKGRFTISRDNAKNTVYLQMNSLKPEDTAVYYCAAQWRYQYPESLESYYWGQGTQVTVSS | high polyreactivity
43 | QVQLVESGGGLVQAGGSLRLSCAASGRIFHFYAMGWYRQAPGKERELVAAITSRTGNTYYADSVKGRFTISRDNAKNTVYLQMNSLKPEDTAVYYCAAKLVNALLHYRNWNHINYWGQGTQVTVSS | low polyreactivity
